For five molecules, Kd, koff and kon results are on record in US20090035320A1 (MIE UNIVERSITY, published 2009).

The target of the assay is T1, PCI-Flag (human, UniProt P05154 26-406, limits assumed).
T1 construct: Full-length human PCI ORF with a C-terminal Flag tag, secreted by CHO cells and purified from the culture supernatant; also called Flag-tagged PCI
T1 chain: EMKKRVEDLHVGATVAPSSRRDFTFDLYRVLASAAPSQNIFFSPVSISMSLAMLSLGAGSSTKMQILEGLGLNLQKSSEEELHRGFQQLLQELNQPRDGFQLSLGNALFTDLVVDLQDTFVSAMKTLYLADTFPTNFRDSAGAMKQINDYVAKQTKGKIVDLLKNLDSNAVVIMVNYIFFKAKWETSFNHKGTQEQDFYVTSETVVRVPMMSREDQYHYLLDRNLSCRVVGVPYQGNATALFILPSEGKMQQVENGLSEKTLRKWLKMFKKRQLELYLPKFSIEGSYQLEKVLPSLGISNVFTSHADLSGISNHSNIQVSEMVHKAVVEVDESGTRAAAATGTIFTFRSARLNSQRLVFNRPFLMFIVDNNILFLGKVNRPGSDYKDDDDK
In words: SPR (BIACORE 2000), PCI-Flag amine-coupled to CM5 chip, antibody injected. How it is done:
PCI-Flag was diluted to 25 μg/ml with 10 mM sodium acetate (pH5.0), and then amine-coupled to a sensor chip CM5 (BIACORE; BR-1000-14) using an amine coupling kit (BIACORE; BR-1000-50) according to the method described in the kit. Approximately 3,000 RU of PCI-Flag was immobilized onto the CM5 chip by this treatment. The kinetic analyses described below were performed on BIACORE 2000 using the sensor chip. […] After the chip was equilibrated with HBS-EP buffer, 40 μl of the antibody solution at each concentration was injected at a flow rate of 20 μl/min. In the association phase, the antibody was injected over two minutes. Then, instead of the antibody, HBS-EP buffer was injected over two minutes in the dissociation phase. After the dissociation phase, 40 μl of 10 mM HCl and then 40 μl of 0.05% SDS were injected continuously to regenerate the sensor chip. The sensorgrams obtained by the procedure described above were superimposed, and the binding rate constant (ka), dissociation rate constant (kd), dissociation constant (KD), and maximal binding (Rmax) were computed using data analysis software (BIAevaluation, ver. 3.0).

B1: PC31E2 (antibody, V domains shown)
VH: QVQLQQSGAELVKPGASVKMSCKAFGYTFTTYPIEWMKQNHGKSLEWIGKFHPDNDDTNYNEKFKGKAKLTVEKSSSTVYLELSRLTSDDSAVYYCARGHDYDYGMDYWGQGTSVTVSS
VL: DIVLTQSPASLAVSLGQRATISCKASQSVDYDGDSYLNWYQQKPGQPPKLLIYGASNLESGTPARFSGSGSGTDFTLDIHPVEEEDAATYYCQQSNEDPPTFGGGTKLEIT
notes: also called anti-PCI neutralizing antibody
As for B1, the Kd is 1790 pM, the koff was found to be 0.000313 s⁻¹ and the on-rate (kon) was determined as 175000 M⁻¹ s⁻¹.

B2: PC19G8 (antibody, IgG1, V domains shown)
VH: EVQLQQSGAELVKPGASVKLSCTASGFDIKDTFMHWVKQRPEQGLEWIGRIDYVNGNTKYDPKFQGKATITGDTSSNTAYLQLSSLTSEDTAVYYCARGGYDVREFAYWGQGTLVTVSA
VL: QIVLTQSPAIMSASPGEKVTITCSATSSLIYMHWFQQKPGSSPELWIYSTSNLASGVPARFSGSGSGTSYSLTISRMEAEDAATYYCQQRSSYPFTFGSGTKLEIK
notes: also called clone #19G8; anti-PCI neutralizing antibody
Turning to B2, the dissociation constant Kd turned out to be 126 pM, the koff was 2.13e-05 s⁻¹ and the kon came out at 168000 M⁻¹ s⁻¹.

B3: PC23D8 (antibody, IgG2a, V domains shown)
VH: EVQLQQSGAELVKPGASVKLSCTASGFDIKDTFMHWVKQRPEQGLEWIGRIDYVNGNTKYDPKFQGKATITGDTSSNTAYLQLSSLTSEDTAVYYCARGGYDVREFAYWGQGTLVTVSA
VL: QIVLTQSPAIMSASPGEKVTITCSATSSLIYMHWFQQKPGSSPELWIYSTSNLASGVPARFSGSGSGTSYSLTISRMEAEDAATYYCQQRSSYPFTFGSGTKLEIK
notes: as for B1
The molecule B3 registered a Kd of 293 pM, a koff of 6.59e-05 s⁻¹ and an on-rate (kon) of 225000 M⁻¹ s⁻¹.

B4: PC39C6 (antibody, IgG1, V domains shown)
VH: EVQLQQSGAELVRPGALVKLSCKASGFNIKDYYIHWVKQRPEQGLEWIGRIDLEKGNIIYDPKFQGKDNITADTSSNTAYLQLSSLTSEDTAVYYCARGGYDVPSFAYWGQGTLVTVSA
VL: QIVLTQSPAIMSASPGEKVTITCSASSSVSYMHWFQQKPGTSPKLWIYSTSNLASGVPARFSGSGSGTSYSLTISRMEAEDAATYYCQQRSSYPFTFGSGTKLEIK
notes: Mouse hybridoma monoclonal, IgG1, purified on Protein G; also called anti-PCI neutralizing antibody
B4: the Kd was 5510 pM, the koff is 0.000489 s⁻¹ and the on-rate constant (kon) amounted to 88800 M⁻¹ s⁻¹.

B5: PC23A7 (antibody, IgG2a, V domains shown)
VH: EVQLQQSGAELVKPGASVKLSCTASGFDIRDTFMHWVKQRPEQGLEWIGRIDLVNVNTKYDPNFQDRATITADTSSNTAYLQLTSLTSEDTAVYYCARGGYDVREFAYWGQGTLVTVSA
VL: QIVLTQSPAIMSASPGEKVTITCSATSSLIYMHWFQQKPGTSPKLWIYSTSNLASGVPARFSGSGSGTSYSLTISRMEAEDAATYYCQQRSSYPFTFGSGTKLEIK
notes: Mouse hybridoma monoclonal, IgG2a, purified on Protein G; also called anti-PCI neutralizing antibody
The molecule B5 had a dissociation constant Kd of 473 pM, a koff of 7.17e-05 s⁻¹ and an on-rate (kon) of 151000 M⁻¹ s⁻¹.
